Several values for one entry are separate records, joined by “and”; a condition that tells them apart may be missing. Identical values can stand only once. One block for each substance: values may come before it.
How the values were obtained:
[1] = biological target: tissue factor (TF) antigen (UniProt P13726); experiment: SPR, Fab captured on anti-penta-His, TF as analyte, 1:1 fit; estimated value from Fab differing only in L chain tag
[2] = biological target: tissue factor (TF) antigen (UniProt P13726); experiment: SPR (ProteOn XPR36), Fab captured on anti-penta His surface, TF injected, 1:1 fit; batch C ('+')
[3] = biological target: tissue factor (TF) antigen (UniProt P13726); experiment: SPR (ProteOn XPR36), Fab captured on anti-penta His surface, TF injected, 1:1 fit; batch C ('+'); reference wild-type D3H44 Fab
[4] = biological target: tissue factor (TF) antigen (UniProt P13726); experiment: SPR, ProteOn XPR36; His-tagged Fab captured on anti-penta-His, TF injected; 1:1 fit; batch C (+)
[5] = biological target: tissue factor (TF) antigen (UniProt P13726); experiment: SPR as for KD; reference: wild-type D3H44 Fab; batch C (+)
[6] = biological target: D3H44 light chain P44F_S131K; experiment: LCCA, SPR tag readout, L1:L2 DNA 1:9 normalized to 1:1; competitor m22
[7] = biological target: D3H44 light chain P44F_S131K; experiment: LCCA, SPR tag readout, L1:L2 DNA 1:3 normalized to 1:1; competitor m22
[8] = biological target: D3H44 light chain Q124E_Q160E_T180E_C214S; experiment: LCCA, SPR tag readout, L1:L2 DNA 1:9 normalized to 1:1; competitor m20
[9] = biological target: D3H44 light chain Q124E_Q160E_T180E_C214S; experiment: LCCA, SPR tag readout, L1:L2 DNA 1:3 normalized to 1:1; competitor m20
[10] = biological target: tissue factor (TF) antigen (UniProt P13726); experiment: SPR (ProteOn XPR36), Fab captured on anti-penta His surface, TF injected, 1:1 fit
[11] = biological target: tissue factor (TF) antigen (UniProt P13726); experiment: SPR (ProteOn XPR36), Fab captured on anti-penta His surface, TF injected, 1:1 fit; reference wild-type D3H44 Fab
[12] = biological target: tissue factor (TF) antigen (UniProt P13726); experiment: SPR, Fab captured on anti-penta-His, TF as analyte, 1:1 fit
[13] = biological target: tissue factor (TF) antigen (UniProt P13726); experiment: SPR, Fab captured on anti-penta-His, TF as analyte; against wild-type D3H44 Fab
[14] = biological target: tissue factor (TF) antigen (UniProt P13726); experiment: SPR (ProteOn), Fab captured via anti-penta-His, TF injected, 1:1 fit
[15] = biological target: tissue factor (TF) antigen (UniProt P13726); experiment: SPR (ProteOn), Fab captured via anti-penta-His, TF injected, 1:1 fit; reference wild-type D3H44 Fab
[16] = biological target: tissue factor (TF) antigen (UniProt P13726); experiment: SPR, Fab captured on anti-penta His surface, TF as analyte, 1:1 fit
[17] = biological target: tissue factor (TF) antigen (human (from the antibody's name 'anti-human tissue factor'; not stated for the antigen lot in the assay)) (UniProt P13726); experiment: SPR (ProteOn XPR36), Fab captured on anti-penta His, TF analyte; against wild-type D3H44 Fab; batch C (+)
[18] = biological target: tissue factor (TF) antigen (human (from the antibody's name 'anti-human tissue factor'; not stated for the antigen lot in the assay)) (UniProt P13726); experiment: SPR (ProteOn XPR36): Fab captured via His tag on anti-penta His surface, TF injected, 1:1 fit; batch C (+)

Substance: D3H44 Fab heterodimer, H L124E_L143E_K145T / L Q124K_V133G_S176R_T178R
Change in KD with respect to wild type (-(log(KD design) - log(KD wt))) [1]: -0.07 | Kd [1]: 0.18 nM

Substance: D3H44 Fab heterodimer, H1 Q39R_H172R_S186R / L1 Q38E_Q124E_Q160E_T180E (H1L1 Fab of LCCA Set # 9824)
Kd [2]: 0.15 nM | Change in median values of KD of h1l1 Fab heterodimer compared to wild type (-(log(KD design)-log(KD wt))) [3]: 0.03

Substance: D3H44 Fab heavy chain L45P_K145T_H172R_Q179E
H1L1:H1L2 normalized median ratio [6]: 92% | H1L1:H1L2 normalized median scalar value ln(r1/f1) [6]: 2.42 | H2L2:H2L1 normalized median ratio [6]: 92% | H1L1:H1L2 normalized median ratio [7]: 94% | H1L1:H1L2 normalized median scalar value ln(r1/f1) [7]: 2.78 | H2L2:H2L1 normalized median ratio [7]: 94% | H1L1:H1L2 normalized median ratio [8]: 8% | H2L2:H2L1 normalized median ratio [8]: 8% | H1L1:H1L2 normalized median ratio [9]: 6% | H2L2:H2L1 normalized median ratio [9]: 6%

Substance: D3H44 Fab heterodimer, H1 L124A_L143F_Q179K / L1 Q124E_V133W_S176T_T178L_T180E (H1L1 Fab of LCCA Set # 9096, 9095 and 9094)
Kd [12]: 0.17 nM | change in median KD compared to wild type, -(log(KD design)-log(KD wt)) [13]: -0.04

Substance: D3H44 Fab heterodimer (H1L1) of LCCA Sets # 9120, 9121: H1 L124E_H172T, L1 V133G_N137K_S174R_S176R
Kd [14]: 0.13 nM | change in median KD compared to wild type, -(log(KD design)-log(KD wt)) [15]: 0.03 and 0.08

Substance: D3H44 Fab heterodimer, H L124E_L143E_K145T / L Q124K_V133G_S176R_T178K
Change in KD with respect to wild type (-(log(KD design) - log(KD wt))) [1]: -0.12 | Kd [1]: 0.21 nM

Substance: D3H44 Fab heterodimer, H1L1 of LCCA Set # 9611 (H1 L143E_K145T_H172R; L1 Q124R_Q160K_T178R)
Kd [4]: 0.12 nM | change in median KD compared to wild type, -(log(KD design)-log(KD wt)) [5]: 0.12 | Change in KD with respect to wild type (-(log(KD design) - log(KD wt))) [16]: 0.12 | Kd [16]: 0.12 nM

Substance: D3H44 Fab heterodimer, H1 Q179R / L1 S131E (H1L1 Fab of LCCA Set # 9984)
Kd [2]: 0.16 nM | Change in median values of KD of h1l1 Fab heterodimer compared to wild type (-(log(KD design)-log(KD wt))) [3]: 0

The next lines start with the values.

Kd [4]: 0.11 nM | change in median KD compared to wild type, -(log(KD design)-log(KD wt)) [5]: 0.15
Substance: D3H44 Fab heterodimer, H1L1 of LCCA Sets # 9881 and 9882 (H1 S186R; L1 Q124E_S131T_T178F_T180E)

Kd [10]: 0.18 nM | Change in median values of KD of h1l1 Fab heterodimer compared to wild type (-(log(KD design)-log(KD wt))) [11]: -0.07
Substance: D3H44 Fab heterodimer, H1 L124R_S186K / L1 V133G_S176D_T178D_T180E (H1L1 Fab of LCCA Sets # 9484, 9481, 9483)

Kd [12]: 0.22 nM | change in median KD compared to wild type, -(log(KD design)-log(KD wt)) [13]: -0.15
Substance: D3H44 Fab heterodimer, H1 L124R_Q179K / L1 Q124E_V133G_S176D_T178E_T180E (H1L1 Fab of LCCA Set # 9392, 9394, 9395, 9376, 9380 and 9384)

Kd [14]: 0.19 nM | change in median KD compared to wild type, -(log(KD design)-log(KD wt)) [15]: -0.08
Substance: D3H44 Fab heterodimer (H1L1) of LCCA Set # 9397: H1 L124R_Q179K, L1 V133G_Q160E_S176D_T180E

Kd [12]: 0.18 nM | change in median KD compared to wild type, -(log(KD design)-log(KD wt)) [13]: -0.07
Substance: D3H44 Fab heterodimer, H1 L124R_S186K / L1 V133G_S176D_T178D_T180E (H1L1 Fab of LCCA Set # 9471 and 9473)

Kd [10]: 0.22 nM | Change in median values of KD of h1l1 Fab heterodimer compared to wild type (-(log(KD design)-log(KD wt))) [11]: -0.15
Substance: D3H44 Fab heterodimer, H1 L124R_S186R / L1 V133G_S176D_T178E_T180E (H1L1 Fab of LCCA Sets # 9541, 9544, 9542)

Change in median values of KD of h1l1 Fab heterodimer compared to wild type (-(log(KD design)-log(KD wt))) [17]: 0.03 | Kd [18]: 0.15 nM
Substance: D3H44 Fab heterodimer, H1 Q39E_L143E_K145T_H172R_Q179E / L1 Q38R_Q124R_Q160K_T178R (H1L1 Fab of LCCA set 9819)

Reference: patent US11306156
